Measured values reported in patent US20200377555A1 (Janssen / Centocor, published 2020).

Columns and labels:
UFV160656 [1] = biological target: T1, UFV160656 (influenza A H1N1 A/California/07/09)
UFV160665 [2] = biological target: T2, UFV160665 (influenza A H1N1 A/California/07/09)
UFV5369 = UFV5369 (influenza A H1N1 A/California/07/09)
UFV160664 [3] = biological target: T3, UFV160664 (influenza A H1N1 A/California/07/09)
UFV160655 [4] = biological target: T4, UFV160655 (influenza A H1N1 A/Brisbane/59/07)
UFV160656 [5] = biological target: T1, UFV160656; assay: ELISA, polypeptide coated, antibody titrated; average of 3 independent assays
UFV160665 [6] = biological target: T2, UFV160665; assay: as above
UFV160664 [7] = biological target: T3, UFV160664; assay: as above
UFV160655 [8] = biological target: T4, UFV160655; assay: as above

B1: CR6261 (antibody, V domains shown)
VH: EVQLVESGAEVKKPGSSVKVSCKASGGPFRSYAISWVRQAPGQGPEWMGGIIPIFGTTKYAPKFQGRVTITADDFAGTVYMELSSLRSEDTAMYYCAKHMGYQVRETMDVWGKGTTVTVSS
VL: QSVLTQPPSVSAAPGQKVTISCSGSSSNIGNDYVSWYQQLPGTAPKLLIYDNNKRPSGIPDRFSGSKSGTSATLGITGLQTGDEANYYCATWDRRPTAYVVFGGGTKLTVLG
Kd (UFV160656 [1]): 0.6 nM
Kd (UFV160665 [2]): 0.56 nM
Kd (UFV5369): 0.97 nM
Kd (UFV160664 [3]): 0.57 nM
Kd (UFV160655 [4]): 0.55 nM
EC50 (UFV160656 [5]): 0.432 nM
EC50 (UFV160665 [6]): 0.425 nM
EC50 (UFV160664 [7]): 0.395 nM
EC50 (UFV160655 [8]): 0.396 nM
